The results in this text go back to the supplement of paper PMC9428881.

± gives the standard error.

The data set is described as follows: background-corrected fluorescence of 3'-dye-labeled ssDNA relative to brightest sequence (3'-GCGCG) (fraction); higher = brighter dye fluorescence (less quenching). The essentials: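 Each of 1024 permuted pentamers was synthesized as single-stranded DNA on glass slides by light-directed phosphoramidite chemistry, with a 3' Cy3 or Cy5 dye alongside. Arrays were scanned at 532 or 635 nm before and after overnight deprotection with ethylenediamine/ethanol. Values average 10 features per array across at least 3 syntheses. The fluorescence readout, with unlabeled-oligo background removed, is given relative to the brightest sequence.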

“TTTTTGCATCATGCTGCGCATTTTTTTTTTTTTTTTGAAT [TAAGT]” showed a background-corrected fluorescence (dye: Cy3 (3' terminal)) of 0.558 ± 0.032 and a background-corrected fluorescence (dye: Cy5 (3' terminal)) of 0.436 ± 0.035.

Sequence “TTTTTGCATGATGATGCTCATTTTTTTTTTTTTTTTCCAG [GACCT]” returned a background-corrected fluorescence (dye: Cy3 (3' terminal)) of 0.47 ± 0.02 and a background-corrected fluorescence (dye: Cy5 (3' terminal)) of 0.377 ± 0.02.

Turning to “TTTTTTCATGCTGCTGCTGCTTTTTTTTTTTTTTTGAAAA [AAAAG]”, the background-corrected fluorescence runs as follows: (dye: Cy3 (3' terminal)) 0.63 ± 0.012; (dye: Cy5 (3' terminal)) 0.491 ± 0.052.

The sequence “TTTTTTGCTCATGCTGATGCTTTTTTTTTTTTTTTAGACA [ACAGA]” had a background-corrected fluorescence (dye: Cy3 (3' terminal)) of 0.522 ± 0.06 and a background-corrected fluorescence (dye: Cy5 (3' terminal)) of 0.383 ± 0.029.

For the sequence “TTTTTTGCGCAGCATGCGCATTTTTTTTTTTTTTTATTAT”, the background-corrected fluorescence (dye: Cy3 (3' terminal)) was determined as 0.508 ± 0.031 and the background-corrected fluorescence (dye: Cy5 (3' terminal)) came out at 0.418 ± 0.024.

In the case of “TTTTTGCATGATCAGCATGCTTTTTTTTTTTTTTTTCGTA”, the background-corrected fluorescence turned out to be 0.59 ± 0.023 (dye: Cy3 (3' terminal)) and 0.457 ± 0.043 (dye: Cy5 (3' terminal)).

“TTTTTTCATGAGCATGCTGCTTTTTTTTTTTTTTTGCTAA [AATCG]”: the background-corrected fluorescence runs as follows: (dye: Cy3 (3' terminal)) 0.534 ± 0.014; (dye: Cy5 (3' terminal)) 0.463 ± 0.032.

Consider “TTTTTTCAGCATGCTGCTGATTTTTTTTTTTTTTTGTAAC [CAATG]”, for which the background-corrected fluorescence (dye: Cy3 (3' terminal)) was 0.441 ± 0.025 and the background-corrected fluorescence (dye: Cy5 (3' terminal)) was determined as 0.364 ± 0.026.

Take “TTTTTTCATGAGCATGAGCATTTTTTTTTTTTTTTGCTCT [TCTCG]”: the background-corrected fluorescence is, setting by setting: (dye: Cy3 (3' terminal)) 0.497 ± 0.015; (dye: Cy5 (3' terminal)) 0.337 ± 0.023.

For the sequence “TTTTTGCATGCGCATGATGATTTTTTTTTTTTTTTTATCC [CCTAT]”, the background-corrected fluorescence was 0.384 ± 0.024 (dye: Cy3 (3' terminal)) and 0.285 ± 0.019 (dye: Cy5 (3' terminal)).

“TTTTTGCAGCAGCAGCATGATTTTTTTTTTTTTTTTTTTC [CTTTT]” registered a background-corrected fluorescence (dye: Cy3 (3' terminal)) of 0.373 ± 0.032 and a background-corrected fluorescence (dye: Cy5 (3' terminal)) of 0.257 ± 0.015.

With “TTTTTGCAGCAGCATCATGCTTTTTTTTTTTTTTTTTTGA [AGTTT]”, the background-corrected fluorescence amounted to 0.634 ± 0.029 (dye: Cy3 (3' terminal)) and 0.524 ± 0.03 (dye: Cy5 (3' terminal)).

As to “TTTTTGCATCATCATCATCATTTTTTTTTTTTTTTTGGGG [GGGGT]”, the background-corrected fluorescence (dye: Cy3 (3' terminal)) is 0.66 ± 0.023 and the background-corrected fluorescence (dye: Cy5 (3' terminal)) came out at 0.613 ± 0.042.

On to “TTTTTTCATCATCATCATGCTTTTTTTTTTTTTTTGGGGA [AGGGG]”, for which the background-corrected fluorescence was determined as 0.753 ± 0.014 (dye: Cy3 (3' terminal)) and 0.757 ± 0.038 (dye: Cy5 (3' terminal)).

As for “TTTTTTGCGCATGATGATGCTTTTTTTTTTTTTTTATCCA [ACCTA]”, the background-corrected fluorescence came to 0.476 ± 0.012 (dye: Cy3 (3' terminal)) and 0.373 ± 0.038 (dye: Cy5 (3' terminal)).

Sequence “TTTTTTCATCATCATGATGATTTTTTTTTTTTTTTGGGCC [CCGGG]” gave a background-corrected fluorescence (dye: Cy3 (3' terminal)) of 0.517 ± 0.031 and a background-corrected fluorescence (dye: Cy5 (3' terminal)) of 0.367 ± 0.032.

Turning to “TTTTTTCATGATCATGCGCATTTTTTTTTTTTTTTGCGAT [TAGCG]”, the background-corrected fluorescence stood at 0.5348 ± 0.0049 (dye: Cy3 (3' terminal)) and 0.474 ± 0.037 (dye: Cy5 (3' terminal)).

“TTTTTGCATGCTGATCAGCATTTTTTTTTTTTTTTTACGT”: the background-corrected fluorescence is, setting by setting: (dye: Cy3 (3' terminal)) 0.584 ± 0.018; (dye: Cy5 (3' terminal)) 0.482 ± 0.038.

Sequence “TTTTTGCATGCTGCTGATGATTTTTTTTTTTTTTTTAACC [CCAAT]” gave a background-corrected fluorescence (dye: Cy3 (3' terminal)) of 0.396 ± 0.025 and a background-corrected fluorescence (dye: Cy5 (3' terminal)) of 0.278 ± 0.021.

As for “TTTTTTCAGCATCATGCTGATTTTTTTTTTTTTTTGTGAC [CAGTG]”, the background-corrected fluorescence is 0.483 ± 0.02 (dye: Cy3 (3' terminal)) and 0.387 ± 0.064 (dye: Cy5 (3' terminal)).

“TTTTTTCAGCATCAGCAGCATTTTTTTTTTTTTTTGTGTT” registered a background-corrected fluorescence (dye: Cy3 (3' terminal)) of 0.565 ± 0.028 and a background-corrected fluorescence (dye: Cy5 (3' terminal)) of 0.435 ± 0.082.

For “TTTTTTGCTGATGCTGATCATTTTTTTTTTTTTTTACACG [GCACA]”, the background-corrected fluorescence is, setting by setting: (dye: Cy3 (3' terminal)) 0.504 ± 0.029; (dye: Cy5 (3' terminal)) 0.422 ± 0.054.

On to “TTTTTTGCGCATCATGATGCTTTTTTTTTTTTTTTATGCA [ACGTA]”, for which the background-corrected fluorescence was 0.527 ± 0.024 (dye: Cy3 (3' terminal)) and 0.46 ± 0.036 (dye: Cy5 (3' terminal)).

“TTTTTGCATGCGCATGATCATTTTTTTTTTTTTTTTATCG [GCTAT]”: the background-corrected fluorescence runs as follows: (dye: Cy3 (3' terminal)) 0.515 ± 0.016; (dye: Cy5 (3' terminal)) 0.402 ± 0.031.

With “TTTTTTGCGCATGCGCAGCATTTTTTTTTTTTTTTATATT”, the background-corrected fluorescence reads like this: (dye: Cy3 (3' terminal)) 0.543 ± 0.019; (dye: Cy5 (3' terminal)) 0.392 ± 0.024.

Turning to “TTTTTTCAGCATCATGCGCATTTTTTTTTTTTTTTGTGAT [TAGTG]”, the background-corrected fluorescence is, setting by setting: (dye: Cy3 (3' terminal)) 0.548 ± 0.032; (dye: Cy5 (3' terminal)) 0.429 ± 0.021.

As for “TTTTTTGATGCTGAGCATCATTTTTTTTTTTTTTTCACTG [GTCAC]”, the background-corrected fluorescence is, setting by setting: (dye: Cy3 (3' terminal)) 0.487 ± 0.028; (dye: Cy5 (3' terminal)) 0.398 ± 0.035.

As to “TTTTTGCAGCATCATCATGCTTTTTTTTTTTTTTTTTGGA [AGGTT]”, the background-corrected fluorescence (dye: Cy3 (3' terminal)) came to 0.689 ± 0.02 and the background-corrected fluorescence (dye: Cy5 (3' terminal)) is 0.638 ± 0.054.

For the sequence “TTTTTGCAGCAGCATGCTGCTTTTTTTTTTTTTTTTTTAA [AATTT]”, the background-corrected fluorescence is, setting by setting: (dye: Cy3 (3' terminal)) 0.569 ± 0.036; (dye: Cy5 (3' terminal)) 0.439 ± 0.024.

For the sequence “TTTTTGCATGCTCATGATGATTTTTTTTTTTTTTTTAGCC [CCGAT]”, the background-corrected fluorescence runs as follows: (dye: Cy3 (3' terminal)) 0.425 ± 0.017; (dye: Cy5 (3' terminal)) 0.311 ± 0.015.

For the sequence “TTTTTTGATGCTGAGCATGCTTTTTTTTTTTTTTTCACTA [ATCAC]”, the background-corrected fluorescence runs as follows: (dye: Cy3 (3' terminal)) 0.471 ± 0.014; (dye: Cy5 (3' terminal)) 0.352 ± 0.025.

“TTTTTGCATGATGAGCATGATTTTTTTTTTTTTTTTCCTC [CTCCT]”: the background-corrected fluorescence is, setting by setting: (dye: Cy3 (3' terminal)) 0.351 ± 0.02; (dye: Cy5 (3' terminal)) 0.266 ± 0.019.

Take “TTTTTGCATCATGCTCAGCATTTTTTTTTTTTTTTTGAGT”: the background-corrected fluorescence is 0.659 ± 0.023 (dye: Cy3 (3' terminal)) and 0.539 ± 0.029 (dye: Cy5 (3' terminal)).

In the case of “TTTTTTGATCAGCATGCTCATTTTTTTTTTTTTTTCGTAG [GATGC]”, the background-corrected fluorescence came out at 0.615 ± 0.024 (dye: Cy3 (3' terminal)) and 0.435 ± 0.03 (dye: Cy5 (3' terminal)).

On to “TTTTTGCATGCTCATCAGCATTTTTTTTTTTTTTTTAGGT [TGGAT]”, for which the background-corrected fluorescence runs as follows: (dye: Cy3 (3' terminal)) 0.634 ± 0.019; (dye: Cy5 (3' terminal)) 0.543 ± 0.033.

As for “TTTTTGCAGCATGCTCATCATTTTTTTTTTTTTTTTTAGG [GGATT]”, the background-corrected fluorescence stood at 0.612 ± 0.027 (dye: Cy3 (3' terminal)) and 0.489 ± 0.054 (dye: Cy5 (3' terminal)).

For “TTTTTTGCTGCTGATGAGCATTTTTTTTTTTTTTTAACCT [TCCAA]”, the background-corrected fluorescence was determined as 0.459 ± 0.016 (dye: Cy3 (3' terminal)) and 0.36 ± 0.039 (dye: Cy5 (3' terminal)).

On to “TTTTTGCAGCATGAGCATCATTTTTTTTTTTTTTTTTCTG [GTCTT]”, for which the background-corrected fluorescence runs as follows: (dye: Cy3 (3' terminal)) 0.472 ± 0.026; (dye: Cy5 (3' terminal)) 0.338 ± 0.046.

Regarding “TTTTTGCATCATCATCATGATTTTTTTTTTTTTTTTGGGC [CGGGT]”, the background-corrected fluorescence reads like this: (dye: Cy3 (3' terminal)) 0.591 ± 0.026; (dye: Cy5 (3' terminal)) 0.516 ± 0.027.

In the case of “TTTTTTGATCATGCTCATCATTTTTTTTTTTTTTTCGAGG [GGAGC]”, the background-corrected fluorescence was 0.723 ± 0.029 (dye: Cy3 (3' terminal)) and 0.534 ± 0.035 (dye: Cy5 (3' terminal)).

For “TTTTTTGCTCAGCAGCATGATTTTTTTTTTTTTTTAGTTC [CTTGA]”, the background-corrected fluorescence (dye: Cy3 (3' terminal)) amounted to 0.433 ± 0.023 and the background-corrected fluorescence (dye: Cy5 (3' terminal)) came out at 0.335 ± 0.025.

“TTTTTTGATGATCATGCTCATTTTTTTTTTTTTTTCCGAG [GAGCC]”: the background-corrected fluorescence was found to be 0.593 ± 0.015 (dye: Cy3 (3' terminal)) and 0.501 ± 0.072 (dye: Cy5 (3' terminal)).

As for “TTTTTTCATCATGATGATGATTTTTTTTTTTTTTTGGCCC [CCCGG]”, the background-corrected fluorescence came to 0.387 ± 0.028 (dye: Cy3 (3' terminal)) and 0.312 ± 0.028 (dye: Cy5 (3' terminal)).
